Patent publication US20040248181A1, “Method and kit for enhancing extraction and quantification of target molecules using microdialysis” (priority 2003, published 2004)

B1: IL-2: mouse cytokine, 15 kD; target analyte of microdialysis sampling (protein, UniProt P04351 21-169, looked up)
Interleukin-2: APTSSSTSSSTAEAQQQQQQQQQQQQHLEQLLMDLQELLSRMENYRNLKLPRMLTFKFYLPKQATELKDLQCLEDELGPLRHVLDLTQSKSFQLEDAENFISNIRVTVVKLKGSDNTFECQFDDESATVVDFLRRWIAFCQSIISTSPQ

Test: Microdialysis sampling of cytokines across CMA-20 probe (10 mm polyethersulfone membrane, 100 kD MWCO) with multiplexed cytokine bead array / flow cytometry readout
Type: physicochemical
Conditions: control perfusion fluid without microspheres; flow rate 1.5 μl/min; quiescent phosphate buffer pH 7.4 containing 5000 pg/ml cytokines
Experimental: Microdialysis probes (CMA-20) with a 10 mm polyethersulfone membrane (100 kDa MWCO) were purchased from CMA Microdialysis (Acton Mass.) and were used as received. For control experiments, the perfusion fluid contained the assay diluent from the BD Pharmingen kit. To enhance the transport of cytokines during the microdialysis sampling process, 5 μl of bead solution for each target analyte was combined and diluted to 250 μl with the assay diluent. […] Greater than 200 μl of fluid was allowed to pass through the microdialysis probe that was immersed into a standard containing 5000 pg/ml of IL-2, IL-4, IL-5, IFN-gamma, and TNF-alpha. After sample collection, the dialysates containing microspheres were reconstituted in 25 μl of assay diluent. Microspheres with coupled target analyte were then incubated with 25 μl phycoerythrin detection reagent for 2 hours and washed briefly prior to flow cytometric analysis.
The dialysate samples were analyzed using a BD FACScan flow cytometer with the appropriate BD Biosciences software for this analysis.
Different cytokines (e.g., mouse IL-2 (15 kD), IL-4 (20-25 kD), and TNF-α ([…])) have been successfully measured across microdialysis probes (CMA-20, 10 mm, polyethersulfone membrane, MWCO 100 kD) in a quiescent solution using a multiplexed cytokine bead array assay (BD Pharmingen). TNF-α has the largest molecular weight of the cytokines targeted for analysis in this example (Thorpe et al., “Detection and Measurement of Cytokines,” Blood Rev. 6:133-48 (1992), which is hereby incorporated by reference in its entirety). Only 25 μl of sample was needed to simultaneously measure all three of these cytokines in solution using the multiplexed bead array (Carson et al., “Simultaneous Quantitation of 15 Cytokines Using a Multiplexed Flow Cytometric Assay,” J. Immunol. Methods 227:41-52 (1999), which is hereby incorporated by reference in its entirety). […]

| Molecule | microdialysis Ed (extraction efficiency) |
| --- | --- |
| IL-4: mouse cytokine, 20-25 kD; target analyte of microdialysis sampling | 0.9±0.3% |
| TNF-α | 1.5±0.5% |
| B1 | 1.1±0.3% |
